B1: h3G8 covalent monospecific diabody (CMD) (other)
chain: DIVMTQSPDSLAVSLGERATINCKASQSVDFDGDSFMNWYQQKPGQPPKLLIYTTSNLESGVPDRFSGSGSGTDFTLTISSLQAEDVAVYYCQQSNEDPYTFGQGTKLEIKGGGSGGGGQVTLRESGPALVKPTQTLTLTCTFSGFSLSTSGMGVGWIRQPPGKALEWLAHIWWDDDKRYNPALKSRLTISKDTSKNQVVLTMTNMDPVDTATYYCAQINPAWFAYWGQGTLVTVSSLGGC
modifications: covalent homodimer: two copies of this chain, disulfide-linked through the C-terminal LGGC cysteine
notes: covalent homodimer; also called h3G8 CMD; h3G8 diabody

How the values were obtained:
[1] = target: T1, soluble CD32A (sCD32A) (UniProt P12318 34-217, limits assumed); experiment: SPR (BIAcore): sCD32A (negative control) immobilised, diabody injected for 60 s
T1 construct: extracellular domain; also called sCD32A (negative control)
T1 sequence (looked up): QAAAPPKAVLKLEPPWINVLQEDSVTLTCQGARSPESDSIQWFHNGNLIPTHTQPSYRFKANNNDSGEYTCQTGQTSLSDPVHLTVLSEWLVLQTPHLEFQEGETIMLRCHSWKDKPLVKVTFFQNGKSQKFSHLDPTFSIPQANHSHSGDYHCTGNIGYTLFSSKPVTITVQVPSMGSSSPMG

[2] = target: T2, soluble CD32B (sCD32B) (human, UniProt P31994 43-217); experiment: sandwich ELISA: sCD32B coated (sCD32B-Ig, 2 ug/ml), diabody titrated, labelled sCD16A as probe
T2 construct: extracellular domain; also called FcγRIIB; soluble CD32B ectodomain
T2 sequence (looked up): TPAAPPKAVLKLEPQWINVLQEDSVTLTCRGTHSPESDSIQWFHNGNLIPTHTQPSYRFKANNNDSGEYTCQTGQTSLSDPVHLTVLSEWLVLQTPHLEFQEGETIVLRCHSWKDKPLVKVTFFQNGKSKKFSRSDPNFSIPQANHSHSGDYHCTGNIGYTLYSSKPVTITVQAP

[3] = target: T3, sCD32B-Ig (UniProt P31994 43-217); experiment: sandwich ELISA, sCD32B-Ig coat, sCD16A probe
T3 construct: extracellular domain; also called CD32B-Fc; CD32-Fc; not shown: Ig/Fc part not described
T3 sequence (looked up): T2 sequence (looked up)

[4] = target: T4, human serum albumin (HSA) (human, UniProt P02768 25-609); experiment: HSA binding class
T4 construct: also called HRP-human albumin

Row | Binder | binding result [1] | binding result [2] | binding result [3] | HSA binding [4]
1 | B1 | no binding (tested: 100 nM) | no binding (tested: 0.5 ug/ml) | no binding (tested: 0.5 µg/ml to 0.001 µg/ml) | 
2 | LAEAKVLANRELDKYGVSDYYKNGANNAKTAEGVKALIDEILAALP (other, also called 64G/65A/71A) [ABD3 L64G/I65A/V71A] |  |  |  | < 0.1

Reference: US20150175697A1 (MacroGenics, published 2015)
